In patent publication US20210380994A1, “LACTOCOCCUS LACTIS EXPRESSION SYSTEM FOR DELIVERING PROTEINS EFFICACIOUS FOR THE TREATMENT OF EPITHELIAL BARRIER FUNCTION DISORDERS” (Second Genome, Inc., priority 2018, published 2021):

B1: SG-11: Roseburia hominis protein comprising SEQ ID NO:3; tested as SEQ ID NO:5, SEQ ID NO:7 or FLAG-tagged SEQ ID NO:9 (protein, listed as Rosburia hominis)
chain: LEGEESVVYVGKKGVIASLDVETLDQSYYDETELKSYVDAEVEDYTAEHGKNAVKVESLKVEDGVAKLKMKYKTPEDYTAFNGIELYQGKVVASLAAGYVYDGEFARVEEGKVVGAATKQDIYSEDDLKVAIIRANTDVKVDGEICYVSCQNVKLTGKDSVSIRDGYYLETGSVTASVDVTGQESVGTEQLSGTEQMEMTGEPVNADDTEQTEAAAGDGSFETDVYTFIVYK
B2: SG-11V5: variant of SEQ ID NO:7 with N53S, N83S, C147V, C151S (protein)
chain: MLEGEESVVYVGKKGVIASLDVETLDQSYYDETELKSYVDAEVEDYTAEHGKSAVKVESLKVEDGVAKLKMKYKTPEDYTAFSGIELYQGKVVASLAAGYVYDGEFARVEEGKVVGAATKQDIYSEDDLKVAIIRANTDVKVDGEIVYVSSQNVKLTGKDSVSIRDGYYLETGSVTASVDVTGQESVGTEQLSGTEQMEMTGEPVNADDTEQTEAAAGDGSFETDVYTFIVYK
modifications: Artificial variant of SG-11 (N53S, N83S, C147V, C151S)

Tested on: C57BL/6 mice treated with DSS
Test: concurrent (prophylactic) DSS model of inflammatory bowel disease (Examples 4, 13A)
Assay type: in vivo
Details: for 4KDa-FITC signal in serum: Example 13, first model, SG-11 (SEQ ID NO:9) 50 nmoles/kg i.p. b.i.d. (FIG. 18A, p=0.04), SG-11V5 (printed FIG. 18B, p=0.21)
Method: On day six, mice were fasted for four hours and then orally gavaged with 600 mg/kg 4KDa dextran labeled with fluorescein isothiocyanate (FITC) [4KDa-FITC]. One hour after the 4KDa-FITC gavage, mice were euthanized, blood was collected, and FITC signal was measured in serum. […] The magnitude of 4KDa-FITC dextran translocation observed for SG-11 was similar to the positive control of Gly2-GLP2. Results are shown in FIG. 3, and are presented as mean±SEM. The graph in FIG. 3 represents data pooled from 3 independent experiments, each using 10 mice (n=30).
SG-11 was also assessed for its effects on the levels of lipopolysaccharide (LPS) binding protein (LBP) in the blood of the DSS animal with and without SG-11 administration. LBP, which has been linked to clinical disease activity in subjects with inflammatory bowel disease, was also measured by […] in the serum of mice tested in the DSS model described in this Example. […] Results are shown in FIG. 4, and are presented as mean±SEM. The graph in FIG. 4 represents data pooled from 3 independent experiments (n=30; each experiment using 10 mice).
Body weight was measured daily from mice included in the DSS model described in this Example. Percent change from starting weight on day 0 was determined for each mouse. […] Weight loss in mice treated with SG-11 at day 6 was similar to weight loss observed with Gly2-GLP2. The graph in FIG. 5 represents data pooled from two independent experiments (n=20; each experiment using 10 mice).
Gross pathology observations were made in mice included in the concurrent DSS model performed in this Example. […] No differences in clinical scores were observed between mice given DSS and treated with either Gly2-GLP2 or SG-11. The scoring system used was: (0)=no gross pathology, (1)=streaks of blood visible in feces, (2)=completely bloody fecal pellets, (3) bloody fecal material visible in cecum, (4) bloody fecal material in cecum and loose stool, (5)=rectal bleeding. The graph in FIG. 6 represents data pooled from 3 independent experiments (n=30; each experiment using 10 mice).
In addition, histopathology analysis was performed on proximal and distal colon tissues from the DSS model animals. […] LMA Loss of mucosal architecture, Edema=Edema, INF=Inflammation. TMI=Transmural inflammation, MH=Mucosal hyperplasia, DYS=Dysplasia. Graphs represent data pooled from two independent experiments, and are plotted as mean±SEM. Statistical analysis was performed by a one-way ANOVA compared to DSS+vehicle followed by a Fisher's LSD test for multiple comparisons.
Colon length was measured in mice included in the DSS model described above. […] The graphs in FIGS. 8A and 8B represent data pooled from 3 independent experiments (n=30). Data are graphed as mean SEM and are pooled from three independent experiments (n=30; each experiment using 10 mice). Statistical analysis was performed by a one-way ANOVA followed by a Fisher's LSD multiple comparisons test.
Briefly, in the first DSS mouse model (Example 13A), mice were treated on day zero with test compound intraperitoneally (i.p.) and 6 hours later DSS treatment was initiated. Doses administered included 50 nmoles/kg for SG-11 (SEQ ID NO:9) ([…]), and Gly2-GLP2 (0.2 mg/kg), and a dose response for SG-11V5 (SEQ ID NO:19) including 16 nmoles/kg ([…]), 50 nmoles/kg ([…]) and 158 nmoles/kg (4.0 mg/kg). […] Therapeutic protein treatments were administered twice a day for the duration of the DSS exposure.
At the end of each DSS model study, mice were fasted for 4 hours and then orally gavaged with 600 mg/kg 4KDa dextran labeled with FITC [4KDa-FITC]. One hour after the 4KDa-FITC gavage, mice were euthanized, blood was collected, and FITC signal was measured in serum. […] Data in both graphs are plotted as mean±SEM and each figure represent data from an individual experiment (n=10 per group).
Upon completion of the OSS models above. […]

[1] = Example 4, 50 nmoles/kg i.p. b.i.d.
[2] = Example 4, 50 nmoles/kg i.p. b.i.d., vs DSS + vehicle

Row | Molecule | colon length [1] | colon weight to length ratio [1] | histopathology: edema score of colon [1] | 4KDa-FITC dextran translocation across the epithelial barrier (serum) (Example 4, 50 nmoles/kg i.p. b.i.d., 2.5% DSS 6 days, vs DSS + vehicle) | body weight [2] | gross pathology (clinical score 0-5) [2] | serum LPS binding protein (LBP) concentration [2] | 4KDa-FITC signal in serum | colon length (Example 13A (FIG. 22A)) | gross pathology (clinical score 0-5) (Example 13, 160 nmoles/kg dose, p<0.002) | body weight (Example 13A, 158 nmoles/kg, day 6) | serum LBP (Example 13A, 158 nmoles/kg, p=0.003)
1 | B1 | prevented colon shortening elicited by DSS | significant improvement in colon weight to length ratios | reduced edema to a similar level as Gly2-GLPs, though the difference did not reach statistical significance | significant reduction in 4KDa-FITC dextran | significantly improved body weight | significantly improved gross pathology | significant reduction in LBP | significantly reduced the 4KDa-FITC signal | significant increase in the colon length |  |  | 
2 | B2 |  |  |  |  |  |  |  | reduced the 4KDa-FITC signal, although the difference did not reach statistical significance | significant increase in the colon length | significant improvement | significant improvement in body weight | significant reduction in LBP production
